Experimental findings from US11161908 (CITY OF HOPE, dated 2021) are described below.

B1: chimeric anti-human BAFF-R antibody C90 (Clone 90 variable regions, human IgG1 constant regions) (antibody, V domains shown)
VH: EVQLQESGPSLVKPSQTLSLTCSVTGDSITSGYWNWIRKFPGNKLEYMGYISYSGSTYYNPSLKSRISITRDTSKNQYYLQLNSVTPEDTATYYCASPNYPFYAMDYWGQGTSVTVSS
VL: not shown
notes: also called chimeric C90; Chi90
B2: humanized C90 variant HC1 + LC3 (antibody, V domains shown)
VH: QVQLQESGPGLVKPSQTLSLTCTVSGDSITSGYWNWIRQHPGKGLEYIGYISYSGSTYYNPSLKSRVTISRDTSKNQFSLKLSSVTAADTAVYYCASPNYPFYAMDYWGQGTLVTVSS
VL: DIVMTQSPSSLSASVGDRVTITCRASESVDNYGISFMNWFQQKPGKAPKLLIYAASNLGSGVPSRFSGSGSGTDFTLTISSLQPEDFATYYCQQSKEVPWTFGQGTKVEIKR
notes: also called Humanized HC1 + LC3; Hu90 HC-1 with Hu90 LC-3
B3: humanized C90 variant HC2 + LC1 (antibody, V domains shown)
VH: EVQLQESGPGLVKPSQTLSLTCTVSGDSITSGYWNWIRQHPGKGLEYIGYISYSGSTYYNPSLKSRVTISRDTSKNQYSLKLSSVTAADTAVYYCASPNYPFYAMDYWGQGTLVTVSS
VL: EIVLTQSPATLSLSPGERATLSCRASESVDNYGISFLNWFQQKPGQAPRLLIYAASNRATGIPARFSGSGSGTDFTLTISSLEPEDFAVYYCQQSKEVPWTFGGGTKVEIKR
notes: also called Humanized HC2 + LC1; Hu90 HC-2 with Hu90 LC-1
B4: humanized C90 variant HC1 + LC1 (antibody, V domains shown)
VH: QVQLQESGPGLVKPSQTLSLTCTVSGDSITSGYWNWIRQHPGKGLEYIGYISYSGSTYYNPSLKSRVTISRDTSKNQFSLKLSSVTAADTAVYYCASPNYPFYAMDYWGQGTLVTVSS
VL: EIVLTQSPATLSLSPGERATLSCRASESVDNYGISFLNWFQQKPGQAPRLLIYAASNRATGIPARFSGSGSGTDFTLTISSLEPEDFAVYYCQQSKEVPWTFGGGTKVEIKR
notes: also called Humanized HC1 + LC1; Hu90 HC-1 with Hu90 LC-1
B5: humanized C90 variant HC2 + LC2 (antibody, V domains shown)
VH: EVQLQESGPGLVKPSQTLSLTCTVSGDSITSGYWNWIRQHPGKGLEYIGYISYSGSTYYNPSLKSRVTISRDTSKNQYSLKLSSVTAADTAVYYCASPNYPFYAMDYWGQGTLVTVSS
VL: DIVLTQSPATLSLSPGERATLSCRASESVDNYGISFMNWFQQKPGQAPRLLIYAASNRATGIPARFSGSGSGTDFTLTISSLEPEDFAVYYCQQSKEVPWTFGGGTKVEIKR
notes: also called Hu90 HC-2 with Hu90 LC-2
B6: humanized C90 variant HC3 + LC3 (antibody, V domains shown)
VH: EVQLQESGPGLVKPSETLSLTCSVSGDSITSGYWNWIRQPPGKGLEYIGYISYSGSTYYNPSLKSRVTISRDTSKNQYSLRLSSVTAADTALYYCASPNYPFYAMDYWGQGTRVTVSS
VL: DIVMTQSPSSLSASVGDRVTITCRASESVDNYGISFMNWFQQKPGKAPKLLIYAASNLGSGVPSRFSGSGSGTDFTLTISSLQPEDFATYYCQQSKEVPWTFGQGTKVEIKR
notes: also called Humanized HC3 + LC3; Hu90 HC-3 with Hu90 LC-3
B7: humanized C90 variant HC1 + LC2 (antibody, V domains shown)
VH: QVQLQESGPGLVKPSQTLSLTCTVSGDSITSGYWNWIRQHPGKGLEYIGYISYSGSTYYNPSLKSRVTISRDTSKNQFSLKLSSVTAADTAVYYCASPNYPFYAMDYWGQGTLVTVSS
VL: DIVLTQSPATLSLSPGERATLSCRASESVDNYGISFMNWFQQKPGQAPRLLIYAASNRATGIPARFSGSGSGTDFTLTISSLEPEDFAVYYCQQSKEVPWTFGGGTKVEIKR
notes: also called Humanized HC1 + LC2; Hu90 HC-1 with Hu90 LC-2
B8: humanized C90 variant HC3 + LC2 (antibody, V domains shown)
VH: EVQLQESGPGLVKPSETLSLTCSVSGDSITSGYWNWIRQPPGKGLEYIGYISYSGSTYYNPSLKSRVTISRDTSKNQYSLRLSSVTAADTALYYCASPNYPFYAMDYWGQGTRVTVSS
VL: DIVLTQSPATLSLSPGERATLSCRASESVDNYGISFMNWFQQKPGQAPRLLIYAASNRATGIPARFSGSGSGTDFTLTISSLEPEDFAVYYCQQSKEVPWTFGGGTKVEIKR
notes: also called Humanized HC3 + LC2; Hu90 HC-3 with Hu90 LC-2
B9: humanized C90 variant HC3 + LC1 (antibody, V domains shown)
VH: EVQLQESGPGLVKPSETLSLTCSVSGDSITSGYWNWIRQPPGKGLEYIGYISYSGSTYYNPSLKSRVTISRDTSKNQYSLRLSSVTAADTALYYCASPNYPFYAMDYWGQGTRVTVSS
VL: EIVLTQSPATLSLSPGERATLSCRASESVDNYGISFLNWFQQKPGQAPRLLIYAASNRATGIPARFSGSGSGTDFTLTISSLEPEDFAVYYCQQSKEVPWTFGGGTKVEIKR
notes: also called Humanized HC3 + LC1; Hu90 HC-3 with Hu90 LC-1
B10: chimeric anti-human BAFF-R antibody C55 (Clone 55 variable regions, human IgG1 constant regions) (antibody, V domains shown)
VH: QVTLKESGPGILKPSQTLSLTCSFSGFSLSTSGMGVGWIRQPSGKGLEWLAHIWWDDDKYYNSSLKSHLTISKDTSRNQVFLKITSVDTADTATYYCARSFGYGLDYWGQGTTLTVSS
VL: DIQMTQTTSSLSASLGDRVTISCSASQDISNYLNWYQQKPDGTVKLLIYYTSSLHSGVPSRFSGSGSGTDYSLTISSLEPEDIATYYCHQFSELPWTFGGGTKLEIK
modifications: Conjugated to Alexa Fluor 488 in FIG. 1D (sites not given)
notes: also called chimeric C55; Chi55
B11: mouse monoclonal antibody from hybridoma Clone 55 (antibody, V domains shown)
VH: QVTLKESGPGILKPSQTLSLTCSFSGFSLSTSGMGVGWIRQPSGKGLEWLAHIWWDDDKYYNSSLKSHLTISKDTSRNQVFLKITSVDTADTATYYCARSFGYGLDYWGQGTTLTVSS
VL: DIQMTQTTSSLSASLGDRVTISCSASQDISNYLNWYQQKPDGTVKLLIYYTSSLHSGVPSRFSGSGSGTDYSLTISSLEPEDIATYYCHQFSELPWTFGGGTKLEIK
notes: also called mouse mAb C55

For the first assay, the target named is T1, commercial, recombinant extracellular domain of human BAFF-R (human, UniProt Q96RJ3 1-78).
T1 construct: extracellular domain
The assay can be described thus: Biacore analysis; antibody as loading sample, recombinant human BAFF-R ECD as sample. As for the experimental part: The chimeric anti-BAFF-R antibody C90 was humanized with several variants. The humanization process took into consideration and analysis of the variable region and specifically the CDRs of the chimeric antibody. From there, three variants for each heavy and light chain was developed with varying degrees of human-likeness ranging from 1 the most human to 3 the most conservative to the chimeric. The variants were combined to produce 9 variants. Biacore analysis was performed on each variant as well as the chimeric parental C90 to determine their equilibrium dissociation constant K_D. The antigen was commercial, recombinant extracellular domain of human BAFF-R.
(SPR reads the build-up and loss of mass on a sensor chip optically.)
As to B1, the koff was found to be 0.002 s⁻¹ and the kon amounted to 990000 M⁻¹ s⁻¹.
As for B2, the equilibrium dissociation constant (Kd) turned out to be 5 nM, the dissociation rate constant (koff) worked out at 0.0021 s⁻¹ and the on-rate (kon) came out at 410000 M⁻¹ s⁻¹.
Consider B3, for which the Kd came out at 2.6 nM, the koff was 0.002 s⁻¹ and the kon worked out at 770000 M⁻¹ s⁻¹.
As for B4, the Kd worked out at 4 nM, the koff is 0.0024 s⁻¹ and the kon was found to be 610000 M⁻¹ s⁻¹.
For B5, in that order: 3.6 nM, 0.0022 s⁻¹ and 610000 M⁻¹ s⁻¹.
For B6 the same measures were 3.4 nM, 0.0023 s⁻¹ and 680000 M⁻¹ s⁻¹.
For the molecule B7, the Kd worked out at 3.7 nM, the koff came out at 0.0023 s⁻¹ and the kon turned out to be 620000 M⁻¹ s⁻¹.
Regarding B8, the dissociation constant (Kd) was determined as 3.1 nM, the koff is 0.0037 s⁻¹ and the kon amounted to 1.2e+06 M⁻¹ s⁻¹.
B9: the Kd was found to be 3.8 nM, the dissociation rate constant (koff) is 0.0031 s⁻¹ and the kon came out at 820000 M⁻¹ s⁻¹.

The target of another assay is T2, human BAFF-R, endogenous, on human B-cell lines, primary lymphoma cells and normal B cells (human, UniProt Q96RJ3 1-184).
T2 construct: whole, on cells; also called BAFF-R-positive human MCL lines (Mino, JeKo-1, REC-1, JVM-13, Z-138); NHL lines JeKo-1, SU-DHL-6, Raji, RL
The assay can be described thus: flow cytometry, Alexa Fluor 488-conjugated chimeric antibody on primary NHL patient samples. For orientation: Flow cytometry measures light scatter and fluorescence of single cells or particles in a stream.
For B10, the binding result was “binds”.

The target of the next assay is T2, human BAFF-R, endogenous, on human …. The assay can be described thus: flow cytometry, hybridoma supernatant at 1/10, 1/50 and 1/200 with anti-mouse IgG-APC on Mino; 293T as negative control. An excerpt:
Figure 8: FIG. 8 are flow cytometry results showing verification that selected hybridoma clones bind MCL cells. Binding of hybridoma Clone 53, 55, 67, and 90 supernatants (1/10, 1/50, and 1/200 dilutions) to Mino (mantle cell lymphoma) and 293T (negative control) cell lines assessed by flow cytometry performed with anti-mouse IgG-APC.
Regarding B11, the binding result is “binds”.

The term koff denotes the first-order rate constant of dissociation. By kon is commonly meant the second-order rate constant of association. What is called Kd is the equilibrium constant for the complex coming apart.
